Experimental data reported in patent US10562947B2, “Compositions and methods for preventing or treating diseases, conditions or processes characterized by aberrant fibroblast proliferation and extracellular matrix deposition” (MOERAE MATRIX, INC., priority 2011, dated 2020).

Assays:
Test in all cases: Kinase Profiling Assay
Assay type in all cases: biochemical
Conditions in all cases: 100 μM peptide
Rse(h) = target: T1, Rse(h) (Homo sapiens, UniProt Q06418)
T1 construct: purchased Millipore (IC50 Profiler Express service)
T1 sequence (Q06418 41-890): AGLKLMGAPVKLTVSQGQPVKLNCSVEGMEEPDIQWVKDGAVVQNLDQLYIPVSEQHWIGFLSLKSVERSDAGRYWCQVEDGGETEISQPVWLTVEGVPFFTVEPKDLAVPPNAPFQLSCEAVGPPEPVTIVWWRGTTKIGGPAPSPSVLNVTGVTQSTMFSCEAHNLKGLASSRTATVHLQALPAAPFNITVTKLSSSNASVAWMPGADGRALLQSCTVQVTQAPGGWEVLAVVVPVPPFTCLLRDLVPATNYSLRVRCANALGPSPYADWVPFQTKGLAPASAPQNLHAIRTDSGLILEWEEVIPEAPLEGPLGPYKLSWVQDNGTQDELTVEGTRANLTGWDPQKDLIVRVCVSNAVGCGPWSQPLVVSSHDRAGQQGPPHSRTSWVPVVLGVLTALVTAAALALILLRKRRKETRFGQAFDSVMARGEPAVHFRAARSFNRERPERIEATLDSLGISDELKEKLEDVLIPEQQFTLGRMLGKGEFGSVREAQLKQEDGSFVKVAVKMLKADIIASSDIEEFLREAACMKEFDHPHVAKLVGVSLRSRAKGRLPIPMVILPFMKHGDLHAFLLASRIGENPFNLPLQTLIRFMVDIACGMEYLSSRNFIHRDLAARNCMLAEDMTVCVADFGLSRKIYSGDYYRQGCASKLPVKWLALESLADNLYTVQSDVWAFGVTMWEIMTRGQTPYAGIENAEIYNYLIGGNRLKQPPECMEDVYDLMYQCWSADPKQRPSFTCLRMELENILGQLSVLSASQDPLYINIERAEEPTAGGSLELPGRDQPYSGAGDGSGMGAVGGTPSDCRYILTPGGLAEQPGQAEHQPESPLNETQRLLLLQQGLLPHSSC
Outline: (§1)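 Each kinase in a 266-member human panel is assayed, in duplicate, for activity in the presence of MK2 inhibitory peptides to gauge specificity.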

Fms(h) = Fms(h) (Homo sapiens, UniProt P07333)
Outline: as §1

WNK3(h) = WNK3(h) (Homo sapiens, UniProt Q9BYP7)
Outline: as §1

SAPK2a(T106M)(h) = SAPK2a(T106M)(h) (Homo sapiens, UniProt Q16539, T106M)
Outline: as §1

EphA8(h) = target: T2, EphA8(h) (Homo sapiens, UniProt P29322)
T2 sequence (P29322 28-1005): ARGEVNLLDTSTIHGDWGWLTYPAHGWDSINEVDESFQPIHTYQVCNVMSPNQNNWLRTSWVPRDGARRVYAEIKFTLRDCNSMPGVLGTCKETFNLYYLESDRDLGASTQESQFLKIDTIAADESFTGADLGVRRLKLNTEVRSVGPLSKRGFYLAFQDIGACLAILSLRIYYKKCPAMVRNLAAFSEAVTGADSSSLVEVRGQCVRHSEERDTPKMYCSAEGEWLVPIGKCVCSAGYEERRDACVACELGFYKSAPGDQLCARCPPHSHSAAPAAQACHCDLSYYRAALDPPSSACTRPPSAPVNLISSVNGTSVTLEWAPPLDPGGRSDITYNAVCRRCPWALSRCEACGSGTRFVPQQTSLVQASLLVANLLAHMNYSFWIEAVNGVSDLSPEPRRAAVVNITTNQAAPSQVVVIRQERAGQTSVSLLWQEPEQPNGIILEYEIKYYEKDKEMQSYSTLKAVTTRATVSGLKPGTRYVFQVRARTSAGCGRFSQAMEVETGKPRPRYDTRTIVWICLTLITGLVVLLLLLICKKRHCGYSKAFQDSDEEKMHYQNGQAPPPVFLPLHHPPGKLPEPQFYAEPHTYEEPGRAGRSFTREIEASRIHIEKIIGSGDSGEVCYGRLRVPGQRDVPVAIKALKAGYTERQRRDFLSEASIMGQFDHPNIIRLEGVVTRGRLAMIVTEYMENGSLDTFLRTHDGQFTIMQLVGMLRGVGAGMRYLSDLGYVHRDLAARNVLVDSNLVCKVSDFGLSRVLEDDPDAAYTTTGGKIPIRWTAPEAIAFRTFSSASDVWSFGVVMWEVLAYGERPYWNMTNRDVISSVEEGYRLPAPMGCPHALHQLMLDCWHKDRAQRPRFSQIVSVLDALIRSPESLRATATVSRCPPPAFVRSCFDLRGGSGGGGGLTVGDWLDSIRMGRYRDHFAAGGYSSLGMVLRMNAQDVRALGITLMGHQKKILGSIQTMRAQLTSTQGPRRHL
Outline: as §1

SAPK3(h) = target: T3, SAPK3(h) (Homo sapiens, UniProt P53778)
T3 sequence (P53778 1-367): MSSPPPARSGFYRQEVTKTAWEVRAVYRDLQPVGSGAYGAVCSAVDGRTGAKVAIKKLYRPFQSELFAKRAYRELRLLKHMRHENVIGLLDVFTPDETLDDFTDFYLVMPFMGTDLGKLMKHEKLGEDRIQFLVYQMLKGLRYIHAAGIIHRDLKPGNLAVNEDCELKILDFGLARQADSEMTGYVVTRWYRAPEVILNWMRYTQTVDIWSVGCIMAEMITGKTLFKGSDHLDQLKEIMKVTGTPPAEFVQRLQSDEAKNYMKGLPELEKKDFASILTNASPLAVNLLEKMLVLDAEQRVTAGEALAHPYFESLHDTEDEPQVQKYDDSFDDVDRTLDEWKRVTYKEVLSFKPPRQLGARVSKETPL
Outline: as §1

ZIPK(h) = ZIPK(h) (Homo sapiens, UniProt O43293)
Outline: as §1

MRCKβ(h) = MRCKβ(h) (Homo sapiens, UniProt Q9Y5S2)
Outline: as §1

SAPK2a(T106M)(h), sequence (Q16539 whole entry T106M): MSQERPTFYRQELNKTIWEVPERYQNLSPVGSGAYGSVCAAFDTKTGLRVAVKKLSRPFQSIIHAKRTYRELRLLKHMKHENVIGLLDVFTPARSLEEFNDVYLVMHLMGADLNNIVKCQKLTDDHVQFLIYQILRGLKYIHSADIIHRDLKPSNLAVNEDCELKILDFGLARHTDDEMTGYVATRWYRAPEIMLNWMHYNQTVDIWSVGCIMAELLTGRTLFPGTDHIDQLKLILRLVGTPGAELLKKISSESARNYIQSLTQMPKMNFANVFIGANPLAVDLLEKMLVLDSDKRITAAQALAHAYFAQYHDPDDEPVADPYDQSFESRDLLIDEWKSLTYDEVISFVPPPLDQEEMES
WNK3(h), sequence (Q9BYP7 whole entry): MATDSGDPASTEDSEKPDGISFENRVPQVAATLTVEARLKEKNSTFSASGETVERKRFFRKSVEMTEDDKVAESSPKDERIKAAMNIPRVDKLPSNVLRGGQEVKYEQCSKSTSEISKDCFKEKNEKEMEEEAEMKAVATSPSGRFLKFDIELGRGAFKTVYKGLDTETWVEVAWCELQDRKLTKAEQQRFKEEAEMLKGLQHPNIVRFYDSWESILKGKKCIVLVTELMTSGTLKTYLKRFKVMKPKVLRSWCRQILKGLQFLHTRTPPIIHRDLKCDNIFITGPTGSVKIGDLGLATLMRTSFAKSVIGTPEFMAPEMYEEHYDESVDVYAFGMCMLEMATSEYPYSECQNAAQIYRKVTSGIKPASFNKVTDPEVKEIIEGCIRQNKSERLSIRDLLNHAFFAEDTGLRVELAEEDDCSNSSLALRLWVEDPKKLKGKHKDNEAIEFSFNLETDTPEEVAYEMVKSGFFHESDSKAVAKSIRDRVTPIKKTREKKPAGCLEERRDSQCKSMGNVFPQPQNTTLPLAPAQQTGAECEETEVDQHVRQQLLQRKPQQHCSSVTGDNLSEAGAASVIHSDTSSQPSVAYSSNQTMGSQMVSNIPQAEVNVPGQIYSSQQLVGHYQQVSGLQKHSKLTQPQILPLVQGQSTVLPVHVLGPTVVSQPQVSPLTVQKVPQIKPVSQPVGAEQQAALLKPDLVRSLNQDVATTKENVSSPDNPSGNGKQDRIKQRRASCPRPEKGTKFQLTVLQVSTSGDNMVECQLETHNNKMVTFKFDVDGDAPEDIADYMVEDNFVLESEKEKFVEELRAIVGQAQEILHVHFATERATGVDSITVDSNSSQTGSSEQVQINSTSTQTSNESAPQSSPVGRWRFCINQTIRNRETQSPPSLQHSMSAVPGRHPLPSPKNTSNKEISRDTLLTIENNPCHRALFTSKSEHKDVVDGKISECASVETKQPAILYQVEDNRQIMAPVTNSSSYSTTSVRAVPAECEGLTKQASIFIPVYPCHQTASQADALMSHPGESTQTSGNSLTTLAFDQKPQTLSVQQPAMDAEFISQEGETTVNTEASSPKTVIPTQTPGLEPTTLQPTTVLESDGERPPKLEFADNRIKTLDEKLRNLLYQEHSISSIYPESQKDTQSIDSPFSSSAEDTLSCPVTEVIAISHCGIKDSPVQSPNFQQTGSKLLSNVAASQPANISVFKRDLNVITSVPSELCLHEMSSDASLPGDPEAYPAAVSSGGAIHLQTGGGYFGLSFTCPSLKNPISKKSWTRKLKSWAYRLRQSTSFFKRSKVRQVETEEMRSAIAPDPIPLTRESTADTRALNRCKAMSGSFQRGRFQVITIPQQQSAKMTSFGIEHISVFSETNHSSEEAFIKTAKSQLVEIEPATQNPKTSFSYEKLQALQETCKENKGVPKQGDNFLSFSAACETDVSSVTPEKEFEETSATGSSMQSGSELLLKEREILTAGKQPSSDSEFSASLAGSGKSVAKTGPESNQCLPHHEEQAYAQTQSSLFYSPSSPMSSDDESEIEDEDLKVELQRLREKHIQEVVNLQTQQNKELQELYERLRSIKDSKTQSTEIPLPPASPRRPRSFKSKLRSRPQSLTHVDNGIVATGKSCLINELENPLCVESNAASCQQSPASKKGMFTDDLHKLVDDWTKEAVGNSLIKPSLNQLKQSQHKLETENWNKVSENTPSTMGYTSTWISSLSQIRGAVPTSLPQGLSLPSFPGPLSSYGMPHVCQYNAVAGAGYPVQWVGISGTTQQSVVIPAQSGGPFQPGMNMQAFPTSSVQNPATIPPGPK
ZIPK(h), sequence (O43293 whole entry): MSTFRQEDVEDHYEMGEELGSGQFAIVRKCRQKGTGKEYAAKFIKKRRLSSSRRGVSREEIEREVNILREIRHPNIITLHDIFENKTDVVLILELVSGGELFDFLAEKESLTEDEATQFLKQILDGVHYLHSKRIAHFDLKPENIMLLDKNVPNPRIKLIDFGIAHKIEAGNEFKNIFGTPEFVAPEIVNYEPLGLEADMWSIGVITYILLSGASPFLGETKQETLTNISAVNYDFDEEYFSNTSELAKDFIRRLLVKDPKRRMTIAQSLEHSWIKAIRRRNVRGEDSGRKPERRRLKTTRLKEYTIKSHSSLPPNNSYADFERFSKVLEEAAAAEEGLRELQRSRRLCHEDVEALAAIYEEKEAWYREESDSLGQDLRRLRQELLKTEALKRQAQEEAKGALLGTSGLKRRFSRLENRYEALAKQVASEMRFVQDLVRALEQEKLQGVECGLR
MRCKβ(h), sequence (Q9Y5S2 whole entry): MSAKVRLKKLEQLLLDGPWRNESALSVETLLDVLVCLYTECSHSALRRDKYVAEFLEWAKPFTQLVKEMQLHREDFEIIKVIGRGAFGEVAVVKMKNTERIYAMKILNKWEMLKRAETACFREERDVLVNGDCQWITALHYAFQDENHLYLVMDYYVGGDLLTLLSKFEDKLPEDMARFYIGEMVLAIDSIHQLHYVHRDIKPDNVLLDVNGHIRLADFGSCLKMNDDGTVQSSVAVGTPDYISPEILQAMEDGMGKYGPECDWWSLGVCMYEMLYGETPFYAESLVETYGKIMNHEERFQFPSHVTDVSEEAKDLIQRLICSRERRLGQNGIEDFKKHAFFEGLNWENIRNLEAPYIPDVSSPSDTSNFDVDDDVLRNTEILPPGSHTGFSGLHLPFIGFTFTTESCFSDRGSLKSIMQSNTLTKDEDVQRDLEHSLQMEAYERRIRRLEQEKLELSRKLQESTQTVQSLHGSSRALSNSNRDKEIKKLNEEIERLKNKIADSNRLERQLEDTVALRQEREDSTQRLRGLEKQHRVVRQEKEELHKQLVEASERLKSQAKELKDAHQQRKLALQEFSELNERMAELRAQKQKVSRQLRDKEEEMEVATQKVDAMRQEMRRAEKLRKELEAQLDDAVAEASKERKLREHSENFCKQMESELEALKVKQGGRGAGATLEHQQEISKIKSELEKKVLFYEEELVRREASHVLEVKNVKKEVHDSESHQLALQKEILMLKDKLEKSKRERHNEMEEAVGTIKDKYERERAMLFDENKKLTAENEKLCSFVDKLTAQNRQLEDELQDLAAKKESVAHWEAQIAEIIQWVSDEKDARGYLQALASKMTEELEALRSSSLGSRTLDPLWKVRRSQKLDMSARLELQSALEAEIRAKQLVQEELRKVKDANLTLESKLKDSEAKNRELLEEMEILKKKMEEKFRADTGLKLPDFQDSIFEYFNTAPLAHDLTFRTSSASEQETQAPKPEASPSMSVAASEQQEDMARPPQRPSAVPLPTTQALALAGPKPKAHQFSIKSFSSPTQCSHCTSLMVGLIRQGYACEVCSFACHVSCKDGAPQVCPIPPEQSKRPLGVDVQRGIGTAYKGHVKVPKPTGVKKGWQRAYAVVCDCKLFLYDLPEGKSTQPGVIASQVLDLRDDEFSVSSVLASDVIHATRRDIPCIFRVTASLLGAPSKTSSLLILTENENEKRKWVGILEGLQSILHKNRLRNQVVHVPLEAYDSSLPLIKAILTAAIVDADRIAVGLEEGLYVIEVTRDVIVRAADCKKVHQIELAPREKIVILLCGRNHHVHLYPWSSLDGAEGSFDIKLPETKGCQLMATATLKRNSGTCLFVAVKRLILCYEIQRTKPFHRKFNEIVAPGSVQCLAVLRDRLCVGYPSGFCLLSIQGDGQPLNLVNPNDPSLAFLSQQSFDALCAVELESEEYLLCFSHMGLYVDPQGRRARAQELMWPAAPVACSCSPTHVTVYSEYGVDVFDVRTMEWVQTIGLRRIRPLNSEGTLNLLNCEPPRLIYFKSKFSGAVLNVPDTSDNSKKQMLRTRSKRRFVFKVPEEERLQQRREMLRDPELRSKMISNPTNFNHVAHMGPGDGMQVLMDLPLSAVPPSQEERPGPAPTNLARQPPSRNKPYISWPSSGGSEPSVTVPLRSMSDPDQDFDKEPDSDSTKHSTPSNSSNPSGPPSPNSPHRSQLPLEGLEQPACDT

| Sequence | Rse(h) % activity (Rse(h)) [%] | Fms(h) % activity (Fms(h)) [%] | WNK3(h) % activity (WNK3(h)) [%] | SAPK2a(T106M)(h) % activity (SAPK2a(T106M)(h)) [%] | EphA8(h) % activity (EphA8(h)) [%] | SAPK3(h) % activity (SAPK3(h)) [%] | ZIPK(h) % activity (ZIPK(h)) [%] | MRCKβ(h) % activity (MRCKβ(h)) [%] |
| --- | --- | --- | --- | --- | --- | --- | --- | --- |
| YARAAARQARAKALNRQLGVA (Mammalian) [MMI-0200] | 88 | 92 | 97 | 100 | 133 | 97 | 67 |  |
| HRRIKAWLKKIKALARQLGVAA (Mammalian) [MMI-0500] | 63 | 14 | 9 | 32 | 337 | 24 | 1 | −10 |
| KAFAKLAARLYRKALARQLGVAA [MMI-0400] | 89 | 37 | 74 | 99 | 146 | 79 | 13 | 71 |
| FAKLAARLYRKALARQLGVAA [MMI-0300] | 88 | 45 | 77 | 97 | 93 | 84 | 28 | 83 |
